Data reported in US20240270821A1, “GIP/GLP1/GCG TRI-RECEPTOR AGONISTS AND USES THEREOF” (priority 2023, published 2024).

B1: Example 216 (peptide)
chain: YXQGTFTSDFSKXLDKKAQXAFIEYLIEXGESSGAPPPSGS
modifications: Aib, αMeL; K acylated AEEA-γGlu-C18 diacid; C-amide; synthetic construct; SITE 2: note = 2-Aminoisobutyric Acid; SITE 13: note = alpha-methyl-leucine; SITE 17: note = Lysine is chemically modified through conjugation of the epsilon-amino group of the Lysine side chain with (2-[2-(2-Amino-ethoxy)-ethoxy]-acetyl)-(gamma-Glu)-CO-(CH2) 16-CO2H; SITE 20: n
B2: Example 218 (peptide)
chain: YXQGTFTSDFSXXLDKKAQXAFIEYLIEXGESSGAPPPSGS
modifications: acylated Lys, C-terminal amide, non-natural residues; synthetic construct; SITE 2: note = 2-Aminoisobutyric Acid; SITE 12: note = L-ornithine; SITE 13: note = alpha-methyl-leucine; SITE 17: note = Lysine is chemically modified through conjugation of the epsilon-amino group of the Lysine side chain with (2-[2-(2-Amino-ethoxy)-ethoxy]-acetyl)-(gamma-Glu)
B3: Example 219 (peptide)
chain: YXQGTFTSDFSXXLDKKAQXAFIEYLIEXGESSGAPPPSGE
modifications: non-natural residues; lipidated Lys; C-terminal amide; synthetic construct; SITE 2: note = 2-Aminoisobutyric Acid; SITE 12: note = L-ornithine; SITE 13: note = alpha-methyl-leucine; SITE 17: note = Lysine is chemically modified through conjugation of the epsilon-amino group of the Lysine side chain with (2-[2-(2-Amino-ethoxy)-ethoxy]-acetyl)-(gamma-Glu)
B4: Example 220 (peptide)
chain: YXQGTFTSDFSRXLDKKAQXAFIEYLIEGGESSGAPPPSGS
modifications: non-natural residues; lysine acylated with AEEA linker C18 diacid; C-amide; synthetic construct; SITE 2: note = 2-Aminoisobutyric Acid; SITE 13: note = alpha-methyl-leucine; SITE 17: note = Lysine is chemically modified through conjugation of the epsilon-amino group of the Lysine side chain with (2-[2-(2-Amino-ethoxy)-ethoxy]-acetyl)-(gamma-Glu)-CO-(CH2) 16-CO2H; SITE 20: n
B5: Example 221 (peptide)
chain: YXQGTFTSDFSRXLDKKAQXAFIEYLIEXGESSGAPPPSGS
modifications: C-terminal amide; lysine acylated with AEEA-γ-Glu-C18 diacid; synthetic construct; SITE 2: note = 2-Aminoisobutyric Acid; SITE 13: note = alpha-methyl-leucine; SITE 17: note = Lysine is chemically modified through conjugation of the epsilon-amino group of the Lysine side chain with (2-[2-(2-Amino-ethoxy)-ethoxy]-acetyl)-(gamma-Glu)-CO-(CH2) 16-CO2H; SITE 20: n
B6: Example 228 (peptide)
chain: YXQGTFTSDFSXXLDKKAQXAFIEYLIEXGESSGAPPPSGE
modifications: non-natural residues, acylated Lys, C-terminal amide; synthetic construct; SITE 2: note = 2-Aminoisobutyric Acid; SITE 12: note = L-ornithine; SITE 13: note = alpha-methyl-leucine; SITE 17: note = Lysine is chemically modified through conjugation of the epsilon-amino group of the Lysine side chain with (2-[2-(2-Amino-ethoxy)-ethoxy]-acetyl)-(gamma-Glu)
B7: Example 229 (peptide)
chain: YXQGTFTSDFSXXLDKKAQXAFIEYLIEXGESSGAPPPSGS
modifications: non-natural residues; lipidated Lys AEEA-γGlu-C18 diacid; C-term amide; synthetic construct; SITE 2: note = 2-Aminoisobutyric Acid; SITE 12: note = L-ornithine; SITE 13: note = alpha-methyl-leucine; SITE 17: note = Lysine is chemically modified through conjugation of the epsilon-amino group of the Lysine side chain with (2-[2-(2-Amino-ethoxy)-ethoxy]-acetyl)-(gamma-Glu)
B8: Example 234 (peptide)
chain: YXQGTFTSDFSXXLDKKAQXAFIEYLLEGGXSSGAPPPGGS
modifications: Aib, Orn, αMeL, Hyp; lipidated Lys; C-terminal amide; synthetic construct; SITE 2: note = 2-Aminoisobutyric Acid; SITE 12: note = L-ornithine; SITE 13: note = alpha-methyl-leucine; SITE 17: note = Lysine is chemically modified through conjugation of the epsilon-amino group of the Lysine side chain with (2-[2-(2-Amino-ethoxy)-ethoxy]-acetyl)-(gamma-Glu)
B9: Example 235 (peptide)
chain: YXQGTFTSDFSXXLDKKAQXAFIEYLLEGGPSSGAXPPGGS
modifications: Aib, Orn, αMeL, Hyp; AEEA-γGlu-C18 diacid on Lys; C-terminal amide; synthetic construct; SITE 2: note = 2-Aminoisobutyric Acid; SITE 12: note = L-ornithine; SITE 13: note = alpha-methyl-leucine; SITE 17: note = Lysine is chemically modified through conjugation of the epsilon-amino group of the Lysine side chain with (2-[2-(2-Amino-ethoxy)-ethoxy]-acetyl)-(gamma-Glu)
B10: Example 236 (peptide)
chain: YXQGTFTSDFSXXLDKKAQXAFIEYLLEGGPSSGAPXPGGS
modifications: Aib, Orn, αMeL, Hyp; acylated Lys; C-terminal amide; synthetic construct; SITE 2: note = 2-Aminoisobutyric Acid; SITE 12: note = L-ornithine; SITE 13: note = alpha-methyl-leucine; SITE 17: note = Lysine is chemically modified through conjugation of the epsilon-amino group of the Lysine side chain with (2-[2-(2-Amino-ethoxy)-ethoxy]-acetyl)-(gamma-Glu)
B11: Example 237 (peptide)
chain: YXQGTFTSDFSXXLDKKAQXAFIEYLLEGGPSSGAPPXGGS
modifications: non-natural residues; lipidated Lys AEEA-γGlu-C18 diacid; C-term amide; synthetic construct; SITE 2: note = 2-Aminoisobutyric Acid; SITE 12: note = L-ornithine; SITE 13: note = alpha-methyl-leucine; SITE 17: note = Lysine is chemically modified through conjugation of the epsilon-amino group of the Lysine side chain with (2-[2-(2-Amino-ethoxy)-ethoxy]-acetyl)-(gamma-Glu)
B12: Example 240 (peptide)
chain: YXQGTFTSDFSXXLDKKAQXAFIEYLLEXGESSGAPPPSGS
modifications: non-natural residues; lipidated Lys; C-terminal amide; synthetic construct; SITE 2: note = 2-Aminoisobutyric Acid; SITE 12: note = L-ornithine; SITE 13: note = alpha-methyl-leucine; SITE 17: note = Lysine is chemically modified through conjugation of the epsilon-amino group of the Lysine side chain with (2-[2-(2-Amino-ethoxy)-ethoxy]-acetyl)-(gamma-Glu)
B13: Example 243 (peptide)
chain: YXQGTFTSDFSXXLDKKAQXAFIEYLLEXGHSSGAPPPSGS
modifications: Aib, Orn, αMeL; lipidated Lys; C-terminal amide; synthetic construct; SITE 2: note = 2-Aminoisobutyric Acid; SITE 12: note = L-ornithine; SITE 13: note = alpha-methyl-leucine; SITE 17: note = Lysine is chemically modified through conjugation of the epsilon-amino group of the Lysine side chain with (2-[2-(2-Amino-ethoxy)-ethoxy]-acetyl)-(gamma-Glu)
B14: Example 244 (peptide)
chain: YXQGTFTSDFSXXLDKKAQXAFIEYLLEXGESSGAPPPSGS
modifications: Aib, Orn, αMeL; γGlu-AEEA-γGlu-C18 diacid on Lys; C-terminal amide; synthetic construct; SITE 2: note = 2-Aminoisobutyric Acid; SITE 12: note = L-ornithine; SITE 13: note = alpha-methyl-leucine; SITE 17: note = Lysine is chemically modified through conjugation of the epsilon-amino group of the Lysine side chain with (gamma-Glu)-(2-[2-(2-Amino-ethoxy)-ethoxy]-acetyl)
B15: Example 245 (peptide)
chain: YXQGTFTSDFSXXLDKKAQXAFIEYLLEXGHSSGAPPPSGS
modifications: Aib, Orn, αMeL; lipidated Lys; C-terminal amide; synthetic construct; SITE 2: note = 2-Aminoisobutyric Acid; SITE 12: note = L-ornithine; SITE 13: note = alpha-methyl-leucine; SITE 17: note = Lysine is chemically modified through conjugation of the epsilon-amino group of the Lysine side chain with (gamma-Glu)-(2-[2-(2-Amino-ethoxy)-ethoxy]-acetyl)

Legend:
Assay in all cases: cell-based or functional assay
[1] = target: human glucagon receptor (human) (UniProt P47871)
Sequence of human glucagon receptor (human) (P47871 26-477): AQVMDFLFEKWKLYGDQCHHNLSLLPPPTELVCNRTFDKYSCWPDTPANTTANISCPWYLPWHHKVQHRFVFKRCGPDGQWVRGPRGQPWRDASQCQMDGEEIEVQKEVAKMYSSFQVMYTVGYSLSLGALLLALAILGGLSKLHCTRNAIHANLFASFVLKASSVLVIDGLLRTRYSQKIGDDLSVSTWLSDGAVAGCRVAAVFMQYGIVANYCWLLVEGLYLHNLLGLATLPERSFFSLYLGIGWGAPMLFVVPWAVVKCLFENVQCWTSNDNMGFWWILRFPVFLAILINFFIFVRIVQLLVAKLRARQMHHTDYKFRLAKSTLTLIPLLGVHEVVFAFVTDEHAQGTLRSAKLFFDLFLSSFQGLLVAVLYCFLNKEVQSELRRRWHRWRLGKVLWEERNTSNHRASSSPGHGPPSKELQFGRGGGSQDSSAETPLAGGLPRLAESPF

hGLP-1R = hGLP-1R (Homo sapiens, UniProt P43220)
Sequence of hGLP-1R (P43220 24-463): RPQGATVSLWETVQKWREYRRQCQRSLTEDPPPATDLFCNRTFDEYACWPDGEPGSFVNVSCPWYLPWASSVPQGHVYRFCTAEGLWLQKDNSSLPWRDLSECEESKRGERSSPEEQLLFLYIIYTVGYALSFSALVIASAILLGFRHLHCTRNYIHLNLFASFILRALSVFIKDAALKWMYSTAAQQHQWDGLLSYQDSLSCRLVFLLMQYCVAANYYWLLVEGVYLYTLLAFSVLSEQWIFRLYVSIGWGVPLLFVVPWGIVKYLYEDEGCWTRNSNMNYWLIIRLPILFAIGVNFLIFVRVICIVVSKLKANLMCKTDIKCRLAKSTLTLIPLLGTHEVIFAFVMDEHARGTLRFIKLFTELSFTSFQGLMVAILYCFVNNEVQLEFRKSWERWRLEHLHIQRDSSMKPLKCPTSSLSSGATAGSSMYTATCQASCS

[2] = target: T1, human GIP receptor (human) (UniProt P48546)
T1 sequence (looked up): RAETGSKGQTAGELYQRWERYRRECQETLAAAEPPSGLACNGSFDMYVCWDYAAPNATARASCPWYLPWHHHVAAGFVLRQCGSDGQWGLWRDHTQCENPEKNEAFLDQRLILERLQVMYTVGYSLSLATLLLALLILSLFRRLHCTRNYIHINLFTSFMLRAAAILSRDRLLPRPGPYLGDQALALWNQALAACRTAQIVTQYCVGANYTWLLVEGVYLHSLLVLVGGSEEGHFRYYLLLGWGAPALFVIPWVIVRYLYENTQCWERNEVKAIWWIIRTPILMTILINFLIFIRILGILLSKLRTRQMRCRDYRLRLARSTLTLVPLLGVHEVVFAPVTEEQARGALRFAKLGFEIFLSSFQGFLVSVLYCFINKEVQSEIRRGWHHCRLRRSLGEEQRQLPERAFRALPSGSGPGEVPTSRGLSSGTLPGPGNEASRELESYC

Binder	Relative cAMP EC50 [1] [nM]	cAMP Rel EC50, nM (1% HSA) [1] [nM]	Relative cAMP EC50 (hGLP-1R) [nM]	cAMP Rel EC50, nM (1% HSA) (hGLP-1R) [nM]	Relative cAMP EC50 [2] [nM]	cAMP Rel EC50, nM (1% HSA) [2] [nM]
B1	2.7	895	0.52	90.6	0.0887	12
B2	7.89	–	0.76	–	0.0853	–
B3	7.77	–	0.835	–	0.119	–
B4	11.2	1990	1.01	189	0.411	87.1
B5	11.3	–	0.629	–	0.105	–
B6	1.38	–	1.52	–	0.147	–
B7	2.3	–	1.58	–	0.179	–
B8	7.87	702	4.72	604	0.322	31.1
B9	4.35	700	3.55	457	0.388	40.8
B10	2.23	309	3.33	261	0.309	24.8
B11	3.77	441	3.4	291	0.228	30.9
B12	2.02	521	3.62	396	0.214	10.4
B13	6.86	–	6.46	–	0.178	–
B14	4.81	1230	7.68	645	0.0972	18.8
B15	7.07	1120	5.99	540	0.0684	10.5
